Substitutions are numbered along the chain they refer to.

T1: recombinant mouse sclerostin (mouse, UniProt Q99P68 24-211)
T1 construct: also called ms sclerostin; murine sclerostin
T1 sequence (looked up): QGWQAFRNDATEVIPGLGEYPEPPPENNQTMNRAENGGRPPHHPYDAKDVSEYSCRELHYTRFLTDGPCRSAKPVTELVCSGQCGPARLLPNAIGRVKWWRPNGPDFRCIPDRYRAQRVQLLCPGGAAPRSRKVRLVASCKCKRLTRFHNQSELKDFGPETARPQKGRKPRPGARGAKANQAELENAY

T2: recombinant human sclerostin (human, UniProt Q9BQB4 24-213)
T2 construct: biotinylated in the ELISAs; also called hu sclerostin; hu scl
T2 sequence: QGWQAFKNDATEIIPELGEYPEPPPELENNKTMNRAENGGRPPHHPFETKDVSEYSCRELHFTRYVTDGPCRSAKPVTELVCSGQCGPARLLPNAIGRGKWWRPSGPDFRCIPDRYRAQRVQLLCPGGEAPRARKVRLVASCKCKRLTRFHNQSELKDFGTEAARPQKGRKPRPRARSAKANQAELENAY

T3: recombinant rat sclerostin (rat, UniProt Q99P67 24-213, limits assumed)
T3 sequence (looked up): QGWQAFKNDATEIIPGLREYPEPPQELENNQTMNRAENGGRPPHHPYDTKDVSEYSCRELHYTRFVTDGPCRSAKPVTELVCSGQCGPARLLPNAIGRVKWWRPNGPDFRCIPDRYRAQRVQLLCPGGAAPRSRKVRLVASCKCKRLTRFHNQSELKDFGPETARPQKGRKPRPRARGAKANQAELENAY

B1: AE10-6-AM3 (antibody, V domains shown)
VH: EVQLVQSGAEVKKPGASVKVSCKVSGYTLTELSMHWVRQAPGKGLEWMGGFDPEDGETIYAQKFQGRVTMTEDTSTDTAYMELSSLRSEDTAVYYCATDSAGYWYKFFQHWGQGTLVTVSS
VL: QAVVTQEPSLTVSPGGTVTLTCGSSTGAVTIDHYPYWFQQKPGQAPRTLISDTDDKHSWTPARFSGSLLGGKAALTLSGAQPEDEAEYYCLLDYGGTFVFGGGTKLTVL
notes: converted into IgG
B2: AE10-6-AM2 (antibody, V domains shown)
VH: B1 VH with D55A, S100G, A101E, G102L
VL: B1 VL with D32W, D54N, T97S
notes: converted into IgG; also called rHC + LC S4 clone 102
B3: AE10-6-AM5 (antibody, V domains shown)
VH: B1 VH with T30S, D55G, S100A, A101G
VL: B1 VL with A28T, D93F, F98V
notes: converted into IgG
B4: AE10-6-AM8 (antibody, V domains shown)
VH: B1 VH with T30S, M34I
VL: B1 VL with T97S
notes: converted into IgG
B5: AE10-6-AM6 (antibody, V domains shown)
VH: B1 VH with T30S, D55G, S100T, A101E, Y105E
VL: B1 VL
notes: converted into IgG; also called rHC + LC S4 clone 119
B6: AE10-6-AM7 (antibody, V domains shown)
VH: B1 VH with S100T, A101V, Y105E
VL: B1 VL with A28T, T97R
notes: converted into IgG; also called rHC + LC S4 clone 131
B7: DVD2658 (bispecific antibody, human IgG1, kappa, L234A L235A)
heavy: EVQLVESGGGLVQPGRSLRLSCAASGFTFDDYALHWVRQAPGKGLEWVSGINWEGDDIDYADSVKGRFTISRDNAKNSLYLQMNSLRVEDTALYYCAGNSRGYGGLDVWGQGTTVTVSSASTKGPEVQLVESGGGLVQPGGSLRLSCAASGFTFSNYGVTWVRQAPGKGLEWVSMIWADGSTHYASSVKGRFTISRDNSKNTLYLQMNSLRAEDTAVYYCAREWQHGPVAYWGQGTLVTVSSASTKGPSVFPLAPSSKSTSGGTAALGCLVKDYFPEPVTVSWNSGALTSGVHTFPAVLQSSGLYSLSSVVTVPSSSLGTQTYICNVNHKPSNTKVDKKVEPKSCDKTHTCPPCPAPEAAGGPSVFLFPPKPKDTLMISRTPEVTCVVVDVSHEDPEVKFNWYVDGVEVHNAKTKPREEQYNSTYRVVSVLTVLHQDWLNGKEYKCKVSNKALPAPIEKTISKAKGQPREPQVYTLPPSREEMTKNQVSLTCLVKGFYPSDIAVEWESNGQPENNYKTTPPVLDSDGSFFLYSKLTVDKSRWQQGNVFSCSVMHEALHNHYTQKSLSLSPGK
light: QSVLTQPPSASGTPGQRVTISCSGSSSNIGRNTVNWYQQLPGTAPKLLIYSNNQRPSGVPDRFSGSKSGTSASLAISGLQSEDEADYYCAAWDDNLESYVFGGGTKLTVLGQPKAAPDIQMTQSPSSLSASVGDRVTITCRASQLVSSAVAWYQQKPGKAPKLLIYWASARHTGVPSRFSGSGSGTDFTLTISSLQPEDFATYYCQQHYKTPFTFGQGTKLEIKRTVAAPSVFIFPPSDEQLKSGTASVVCLLNNFYPREAKVQWKVDNALQSGNSQESVTEQDSKDSTYSLSSTLTLSKADYEKHKVYACEVTHQGLSSPVTKSFNRGEC
notes: DVD-Ig: outer MSL10-AM1.2, inner AB436
B8: DVD2657 (bispecific antibody, human IgG1, kappa, L234A L235A)
heavy: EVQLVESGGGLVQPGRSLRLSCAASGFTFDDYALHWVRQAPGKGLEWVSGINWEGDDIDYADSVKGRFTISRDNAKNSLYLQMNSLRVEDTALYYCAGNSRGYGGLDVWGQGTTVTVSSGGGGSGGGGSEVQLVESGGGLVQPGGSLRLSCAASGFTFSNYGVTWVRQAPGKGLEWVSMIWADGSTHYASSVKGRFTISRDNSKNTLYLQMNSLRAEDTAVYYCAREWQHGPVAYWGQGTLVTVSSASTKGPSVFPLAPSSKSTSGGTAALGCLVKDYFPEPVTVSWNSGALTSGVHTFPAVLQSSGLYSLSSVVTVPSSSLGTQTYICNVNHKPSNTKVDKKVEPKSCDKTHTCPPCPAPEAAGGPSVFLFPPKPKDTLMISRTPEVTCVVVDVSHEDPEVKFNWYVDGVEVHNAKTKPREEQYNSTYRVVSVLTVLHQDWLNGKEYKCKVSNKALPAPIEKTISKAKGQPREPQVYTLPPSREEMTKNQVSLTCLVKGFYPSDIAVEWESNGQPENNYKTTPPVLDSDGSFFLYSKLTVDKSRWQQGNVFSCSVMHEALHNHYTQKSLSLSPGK
light: QSVLTQPPSASGTPGQRVTISCSGSSSNIGRNTVNWYQQLPGTAPKLLIYSNNQRPSGVPDRFSGSKSGTSASLAISGLQSEDEADYYCAAWDDNLESYVFGGGTKLTVLGGGSGGGGSGDIQMTQSPSSLSASVGDRVTITCRASQLVSSAVAWYQQKPGKAPKLLIYWASARHTGVPSRFSGSGSGTDFTLTISSLQPEDFATYYCQQHYKTPFTFGQGTKLEIKRTVAAPSVFIFPPSDEQLKSGTASVVCLLNNFYPREAKVQWKVDNALQSGNSQESVTEQDSKDSTYSLSSTLTLSKADYEKHKVYACEVTHQGLSSPVTKSFNRGEC
notes: as for B7
B9: MAK195-21-SS-AE10-6 AM7 (bispecific antibody, human IgG1, lambda, L234A L235A)
heavy: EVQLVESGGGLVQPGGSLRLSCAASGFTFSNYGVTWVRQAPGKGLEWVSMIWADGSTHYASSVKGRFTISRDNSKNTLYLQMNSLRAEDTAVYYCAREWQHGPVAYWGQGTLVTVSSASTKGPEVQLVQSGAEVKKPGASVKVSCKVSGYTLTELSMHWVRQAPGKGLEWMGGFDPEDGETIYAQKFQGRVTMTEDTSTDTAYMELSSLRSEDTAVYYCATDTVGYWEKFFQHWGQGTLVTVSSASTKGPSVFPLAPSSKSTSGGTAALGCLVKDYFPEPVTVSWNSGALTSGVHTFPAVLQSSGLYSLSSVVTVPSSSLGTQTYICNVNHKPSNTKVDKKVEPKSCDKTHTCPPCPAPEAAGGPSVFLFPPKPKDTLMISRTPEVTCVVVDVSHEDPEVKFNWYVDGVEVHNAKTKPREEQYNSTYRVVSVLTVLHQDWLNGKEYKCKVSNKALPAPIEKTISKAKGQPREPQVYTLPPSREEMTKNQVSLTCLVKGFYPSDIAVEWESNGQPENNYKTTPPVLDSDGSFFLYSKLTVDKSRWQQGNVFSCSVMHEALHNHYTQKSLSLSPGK
light: DIQMTQSPSSLSASVGDRVTITCRASQLVSSAVAWYQQKPGKAPKLLIYWASARHTGVPSRFSGSGSGTDFTLTISSLQPEDFATYYCQQHYKTPFTFGQGTKLEIKRTVAAPQAVVTQEPSLTVSPGGTVTLTCGSSTGTVTIDHYPYWFQQKPGQAPRTLISDTDDKHSWTPARFSGSLLGGKAALTLSGAQPEDEAEYYCLLDYGGRFVFGGGTKLTVLGQPKAAPSVTLFPPSSEELQANKATLVCLISDFYPGAVTVAWKADSSPVKAGVETTTPSKQSNNKYAASSYLSLTPEQWKSHRSYSCQVTHEGSTVEKTVAPTECS
notes: DVD-Ig: outer MAK195-21, inner AE10-6 AM7
B10: MAK195-21-GS-AE10-6 AM3 (bispecific antibody, human IgG1, lambda, L234A L235A)
heavy: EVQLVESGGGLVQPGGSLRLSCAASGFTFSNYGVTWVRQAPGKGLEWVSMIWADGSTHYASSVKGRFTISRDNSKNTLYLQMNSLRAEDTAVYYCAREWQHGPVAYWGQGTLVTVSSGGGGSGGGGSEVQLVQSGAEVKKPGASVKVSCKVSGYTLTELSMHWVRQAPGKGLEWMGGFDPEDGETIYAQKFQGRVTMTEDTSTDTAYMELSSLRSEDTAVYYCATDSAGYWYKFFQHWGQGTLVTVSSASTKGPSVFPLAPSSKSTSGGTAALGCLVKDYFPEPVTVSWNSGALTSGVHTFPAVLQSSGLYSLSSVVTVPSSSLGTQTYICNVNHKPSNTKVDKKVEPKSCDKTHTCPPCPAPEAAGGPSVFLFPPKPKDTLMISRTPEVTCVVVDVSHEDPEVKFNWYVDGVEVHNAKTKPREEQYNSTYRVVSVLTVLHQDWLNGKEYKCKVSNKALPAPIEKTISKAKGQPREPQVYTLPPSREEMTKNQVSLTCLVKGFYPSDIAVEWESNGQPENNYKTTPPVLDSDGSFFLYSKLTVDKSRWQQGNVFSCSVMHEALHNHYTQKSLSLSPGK
light: DIQMTQSPSSLSASVGDRVTITCRASQLVSSAVAWYQQKPGKAPKLLIYWASARHTGVPSRFSGSGSGTDFTLTISSLQPEDFATYYCQQHYKTPFTFGQGTKLEIKGGSGGGGSGQAVVTQEPSLTVSPGGTVTLTCGSSTGAVTIDHYPYWFQQKPGQAPRTLISDTDDKHSWTPARFSGSLLGGKAALTLSGAQPEDEAEYYCLLDYGGTFVFGGGTKLTVLGQPKAAPSVTLFPPSSEELQANKATLVCLISDFYPGAVTVAWKADSSPVKAGVETTTPSKQSNNKYAASSYLSLTPEQWKSHRSYSCQVTHEGSTVEKTVAPTECS
notes: DVD-Ig: outer MAK195-21, inner AE10-6 AM3; heavy chain row is printed MAK195-1-GS-AE10-6 AM3; also called MAK195-1-GS-AE10-6 AM3
B11: MAK195-21-GS-AE10-6 AM8 (bispecific antibody, human IgG1, lambda, L234A L235A)
heavy: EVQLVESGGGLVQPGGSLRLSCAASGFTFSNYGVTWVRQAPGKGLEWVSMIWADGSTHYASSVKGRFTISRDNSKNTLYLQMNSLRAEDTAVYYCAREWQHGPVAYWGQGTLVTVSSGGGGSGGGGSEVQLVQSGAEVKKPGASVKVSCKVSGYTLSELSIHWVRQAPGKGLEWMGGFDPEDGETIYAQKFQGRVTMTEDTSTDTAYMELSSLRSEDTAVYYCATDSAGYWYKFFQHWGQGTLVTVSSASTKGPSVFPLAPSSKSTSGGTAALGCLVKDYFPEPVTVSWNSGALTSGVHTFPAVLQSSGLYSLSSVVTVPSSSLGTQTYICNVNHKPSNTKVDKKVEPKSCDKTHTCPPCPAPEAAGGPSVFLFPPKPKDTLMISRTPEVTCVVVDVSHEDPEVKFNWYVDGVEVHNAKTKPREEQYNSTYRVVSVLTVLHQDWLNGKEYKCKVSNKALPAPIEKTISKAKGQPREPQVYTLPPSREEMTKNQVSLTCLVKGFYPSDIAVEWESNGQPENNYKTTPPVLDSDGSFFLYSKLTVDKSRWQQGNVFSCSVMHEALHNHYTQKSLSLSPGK
light: B10 light with T213S
notes: DVD-Ig: outer MAK195-21, inner AE10-6 AM8
B12: MAK195-21-GS-AE10-6 AM7 (bispecific antibody, human IgG1, lambda, L234A L235A)
heavy: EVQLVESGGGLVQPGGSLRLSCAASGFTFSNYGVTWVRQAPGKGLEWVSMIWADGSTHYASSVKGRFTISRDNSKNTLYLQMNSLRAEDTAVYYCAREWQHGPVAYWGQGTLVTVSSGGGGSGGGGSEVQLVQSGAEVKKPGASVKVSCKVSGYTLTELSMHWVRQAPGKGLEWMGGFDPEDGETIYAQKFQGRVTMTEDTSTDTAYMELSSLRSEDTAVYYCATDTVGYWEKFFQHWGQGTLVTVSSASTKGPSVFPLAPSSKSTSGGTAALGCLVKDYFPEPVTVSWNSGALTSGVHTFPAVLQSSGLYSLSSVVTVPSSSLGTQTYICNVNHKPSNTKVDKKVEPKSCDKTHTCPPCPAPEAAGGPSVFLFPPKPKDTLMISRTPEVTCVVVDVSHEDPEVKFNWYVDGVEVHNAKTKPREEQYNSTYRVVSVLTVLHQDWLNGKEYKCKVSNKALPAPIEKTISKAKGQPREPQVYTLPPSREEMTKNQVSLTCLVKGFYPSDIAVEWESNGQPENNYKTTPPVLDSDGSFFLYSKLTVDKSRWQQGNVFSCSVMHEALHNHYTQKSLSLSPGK
light: B10 light with A144T, T213R
notes: as for B9

One assay concerns the target T1, recombinant mouse sclerostin. The assay is described as follows: SPR. How it is done: (§1) The binding of antibodies or anti-sclerostin-TNF DVD to purified recombinant human, cynomolgus monkey (cyno), rat and mouse sclerostin and TNFα was determined by surface plasmon resonance-based measurements with a Biacore T100 or T200 instruments (GE Healthcare Life Sciences, Piscataway, N.J., USA) using running HBS-EP+ (10 mM HEPES [pH 7.4], 150 mM NaCl, 3 mM EDTA, and 0.005% surfactant P20) containing additional 150 mM NaCl, and/or 10 mg/ml carboxymethyl dextran, 0.1 mg/ml BSA at 25° C. All chemicals were obtained from GE Healthcare Life Sciences, Piscataway, N.J., USA or otherwise from a different source as described in the text. Approximately 10,000 RU (or 3000 RU when CM3 chip was used) of goat anti-mouse or anti-human IgG (Fcγ) fragment specific polyclonal antibody (Pierce Biotechnology Inc, Rockford, Ill.) diluted in 10 mM sodium acetate (pH 4.5) was directly immobilized across a CM5 (or CM3) research grade biosensor chip using a standard amine coupling kit according to manufacturer's instructions and procedures at 15 μg/ml. Unreacted moieties on the biosensor surface were blocked with ethanolamine. Modified carboxymethyl dextran surface in flowcells 2, 3 and 4 were used as a reaction surface. Modified carboxymethyl dextran in flow cell 1 was used as the reference surface. Biaevaluation T100 software version 2.0.2, GE Healthcare Life Sciences was used to simultaneously fit association and dissociation phases of all injections (using 1:1 fit analysis with local Rmax). Purified antibodies were diluted in running buffer for capture across goat anti-mouse or anti-human IgG specific reaction surfaces. Antibodies to be captured as a ligand (1 μg/ml) were injected over reaction matrices at a flow rate of 10 μl/minute. The association and dissociation rate constants, kon (unit M-1 s-1) and koff (unit s-1) were determined under a continuous flow rate of 50 μl/minute. […] At the end of each cycle the surfaces were regenerated with 10 s injection of 50 mM NaOH or/and by 10 s injection of 10 mM Glycine pH1.5 at a flow rate of 100 μl/min.
(In general: Surface plasmon resonance follows binding to a sensor surface in real time, without labels.)
One may read the Kd as the concentration at which binding is half-saturated. For orientation: koff means the first-order rate constant of dissociation. A word on the kon: it is a measure of how fast the partners come together. For B1, the Kd turned out to be 5.5 pM, the koff worked out at 5.5e-05 s⁻¹ and the kon was determined as 1e+07 M⁻¹ s⁻¹.

For the molecule B2, the Kd came to 94 pM, the koff is 0.002 s⁻¹ and the kon turned out to be 2.1e+07 M⁻¹ s⁻¹.

Consider B3, for which the Kd came to 16 pM, the koff amounted to 0.00011 s⁻¹ and the kon worked out at 7e+06 M⁻¹ s⁻¹.

As for B4, the Kd is 7.4 pM, the koff amounted to 8.2e-05 s⁻¹ and the kon came to 1.1e+07 M⁻¹ s⁻¹.

With B5, the Kd amounted to 27 pM, the koff came out at 0.00087 s⁻¹ and the kon worked out at 3.2e+07 M⁻¹ s⁻¹.

With B6, the Kd was 9.3 pM, the koff was 0.00012 s⁻¹ and the kon amounted to 1.3e+07 M⁻¹ s⁻¹.

The target of a further assay is T2, recombinant human sclerostin. Put plainly: SPR. The protocol:
as §1
As for B7, the Kd is < 3.7 pM, the koff is < 1e-06 s⁻¹ and the kon is 270000 M⁻¹ s⁻¹.

In the case of B8, the Kd came to 17 pM, the koff was 4.9e-06 s⁻¹ and the kon is 280000 M⁻¹ s⁻¹.

For the molecule B1, the Kd came to 0.54 pM, the koff amounted to 3.8e-06 s⁻¹ and the kon worked out at 7e+06 M⁻¹ s⁻¹.

Consider B2, for which the Kd is 8.1 pM, the koff came out at 2.7e-05 s⁻¹ and the kon was found to be 3.4e+06 M⁻¹ s⁻¹.

B3: the Kd stood at 3 pM, the koff worked out at 1.3e-05 s⁻¹ and the kon is 4.3e+06 M⁻¹ s⁻¹.

With B4, the Kd amounted to 1.3 pM, the koff was 9.7e-06 s⁻¹ and the kon was 7.4e+06 M⁻¹ s⁻¹.

As for B5, the Kd is 1.3 pM, the koff turned out to be 1.2e-05 s⁻¹ and the kon amounted to 9.1e+06 M⁻¹ s⁻¹.

For the molecule B6, the Kd amounted to 0.3 pM, the koff turned out to be 2.1e-06 s⁻¹ and the kon was found to be 7.1e+06 M⁻¹ s⁻¹.

As to B9, the Kd is < 1.5 pM, the koff was < 1e-06 s⁻¹ and the kon stood at 680000 M⁻¹ s⁻¹.

B10: the Kd worked out at 8.2 pM, the koff came to 1.7e-05 s⁻¹ and the kon was 2.1e+06 M⁻¹ s⁻¹.

As to B11, the Kd turned out to be 3.6 pM, the koff turned out to be 7.9e-06 s⁻¹ and the kon was determined as 2.2e+06 M⁻¹ s⁻¹.

As for B12, the Kd turned out to be 10 pM, the koff was 2e-05 s⁻¹ and the kon is 2e+06 M⁻¹ s⁻¹.

The target in the next assay is T4, recombinant cynomolgus monkey sclerostin (cynomolgus monkey).
T4 construct: also called cyno sclerostin; Cyno sclerostin
Put plainly: SPR. How it is done:
as §1
On to B7, for which the Kd is 61 pM, the koff worked out at 3e-05 s⁻¹ and the kon came to 500000 M⁻¹ s⁻¹.

Regarding B8, the Kd amounted to 130 pM, the koff turned out to be 5e-05 s⁻¹ and the kon is 390000 M⁻¹ s⁻¹.

Turning to B1, the Kd came out at 0.24 pM, the koff amounted to 1.6e-06 s⁻¹ and the kon was determined as 6.9e+06 M⁻¹ s⁻¹.

Turning to B2, the Kd was 7.1 pM, the koff came out at 2.6e-05 s⁻¹ and the kon turned out to be 3.6e+06 M⁻¹ s⁻¹.

In the case of B3, the dissociation constant (Kd) was found to be 1.5 pM, the koff was 7.6e-06 s⁻¹ and the kon is 5.2e+06 M⁻¹ s⁻¹.

For B4, the Kd amounted to 0.39 pM, the koff turned out to be 3e-06 s⁻¹ and the kon was found to be 7.7e+06 M⁻¹ s⁻¹.

B5: the Kd turned out to be 0.88 pM, the koff amounted to 7e-06 s⁻¹ and the kon worked out at 7.9e+06 M⁻¹ s⁻¹.

In the case of B6, the Kd was < 0.14 pM, the koff is < 1e-07 s⁻¹ and the kon is 7e+06 M⁻¹ s⁻¹.

For a further assay, the target named is T3, recombinant rat sclerostin. The assay is described as follows: SPR. The protocol:
as §1
Regarding B1, the Kd was 10 pM, the koff was 1.9e-05 s⁻¹ and the kon came out at 1.9e+06 M⁻¹ s⁻¹.

Regarding B2, the Kd turned out to be 120 pM, the koff came to 0.00088 s⁻¹ and the kon stood at 7.6e+06 M⁻¹ s⁻¹.

As for B3, the Kd came to 56 pM, the koff amounted to 7.5e-05 s⁻¹ and the kon turned out to be 1.3e+06 M⁻¹ s⁻¹.

As for B4, the Kd was 34 pM, the koff came to 5.9e-05 s⁻¹ and the kon came out at 1.8e+06 M⁻¹ s⁻¹.

As for B5, the Kd was determined as 98 pM, the koff is 0.00018 s⁻¹ and the kon is 1.9e+06 M⁻¹ s⁻¹.

As to B6, the Kd was found to be 26 pM, the koff amounted to 4.6e-05 s⁻¹ and the kon was 1.8e+06 M⁻¹ s⁻¹.

For the origin of these results see patent US20150266977A1 (AbbVie / Abbott, published 2015).
